Assay results published in paper doi:10.1101/2021.11.08.467742.

Molecular target: Vibrio maritimus FtsA residues 1-396 (Vibrio maritimus)
Experiment: SPR

fold weaker than the EcFtsA^1-405-EcFtsN^1-32 interaction (SPR): 3 fold
Substance: Vibrio maritimus FtsN cytoplasmic peptide, residues 1-29
